Assay results: publication doi:10.1101/2023.04.12.536520, “Structural bases for the Charcot–Marie–Tooth disease induced by single amino acid substitutions of myelin protein zero” (bioRxiv, 2023)
Numbering of substitutions follows the chain as printed. Names and notes keep the numbering of the source.

B1: human MPZ-ECD with a C-terminal histidine-tag (ECD-His), wild type (domain or fragment)
chain: MGIVVYTDREVHGAVGSRVTLHCSFWSSEWVSDDISFTWRYQPEGGRDAISIFHYAKGQPYIDEVGTFKERIQWVGDPRWKDGSIVIHNLDYSDNGTFTCDVKNPPDIVGKTSQVTLYVFEKVPTR
notes: two artificial amino acids at the N-terminus; myelin protein zero (MPZ, P0), human, extracellular domain I1 through V121; I1 is residue 30 of the precursor P25189; linker between the ECD and the His6-tag; Non-glycosylated; also called hMPZ-ECD-His; WT; not shown: His6, C-terminal, kept
B2: human MPZ-ECD without a histidine-tag (ECD) (domain or fragment)
chain: MGIVVYTDREVHGAVGSRVTLHCSFWSSEWVSDDISFTWRYQPEGGRDAISIFHYAKGQPYIDEVGTFKERIQWVGDPRWKDGSIVIHNLDYSDNGTFTCDVKNPPDIVGKTSQVTLYVFEKV
notes: two artificial amino acids at the N-terminus; myelin protein zero (MPZ, P0), human, extracellular domain I1 through V121; I1 is residue 30 of the precursor P25189; Non-glycosylated; also called hMPZ-ECD
B3: ECD-His R38A variant (domain or fragment, human)
chain: B1 chain with R40A
notes: two artificial amino acids at the N-terminus; myelin protein zero (MPZ, P0), human, extracellular domain I1 through V121; I1 is residue 30 of the precursor P25189; linker between the ECD and the His6-tag; trans interface substitution; not shown: His6, C-terminal, kept
B4: ECD-His R45A variant (domain or fragment, human)
chain: B1 chain with R47A
notes: as for B3
B5: ECD-His D46V variant (domain or fragment, human)
chain: B1 chain with D48V
notes: two artificial amino acids at the N-terminus; myelin protein zero (MPZ, P0), human, extracellular domain I1 through V121; I1 is residue 30 of the precursor P25189; linker between the ECD and the His6-tag; CMT2-related substitution at the trans interface; not shown: His6, C-terminal, kept
B6: ECD-His A47V variant (domain or fragment, human)
chain: B1 chain with A49V
notes: as for B5
B7: ECD-His D32G variant (domain or fragment, human)
chain: B1 chain with D34G
notes: two artificial amino acids at the N-terminus; myelin protein zero (MPZ, P0), human, extracellular domain I1 through V121; I1 is residue 30 of the precursor P25189; linker between the ECD and the His6-tag; CMT2-related substitution at the head-to-head interface; not shown: His6, C-terminal, kept
B8: ECD-His D32N variant (domain or fragment, human)
chain: B1 chain with D34N
notes: two artificial amino acids at the N-terminus; myelin protein zero (MPZ, P0), human, extracellular domain I1 through V121; I1 is residue 30 of the precursor P25189; linker between the ECD and the His6-tag; CMT1B-related substitution at the head-to-head interface; the recombinant protein was non-glycosylated; not shown: His6, C-terminal, kept
B9: ECD-His H52R variant (domain or fragment, human)
chain: B1 chain with H54R
notes: two artificial amino acids at the N-terminus; myelin protein zero (MPZ, P0), human, extracellular domain I1 through V121; I1 is residue 30 of the precursor P25189; linker between the ECD and the His6-tag; DSS-related substitution at the trans interface; not shown: His6, C-terminal, kept
B10: ECD-His E68V variant (domain or fragment, human)
chain: B1 chain with E70V
notes: two artificial amino acids at the N-terminus; myelin protein zero (MPZ, P0), human, extracellular domain I1 through V121; I1 is residue 30 of the precursor P25189; linker between the ECD and the His6-tag; CMT2-related substitution at the cis interface; not shown: His6, C-terminal, kept

Target: the molecule itself
Assay: SEC-MALS; ECD-His injected at 52 µM; Superdex 200 Increase 10/300 GL; standard buffer (20 mM Tris-HCl pH 7.4, 100 mM NaCl); room temperature; 8-mer to monomers

Stoichiometry N, 8:
B1

Target: the molecule itself
Assay: SEC; free ECD or ECD-His variants; HiLoad Superdex 200 16/600 (Fig. 4A-C) or Superdex 200 Increase 10/300 (Fig. 3, Fig. S1); standard buffer (20 mM Tris-HCl pH 7.4, 100 mM NaCl); 4 °C; 8-mer to monomers

Stoichiometry N, 8:
B2, B3, B4, B5, B6, B7, B8, B9, B10
